The text below walks through data of paper PMC4570970.

A word on the Km: it is the substrate concentration at which the rate is half of its maximum.

Substrate in this data set: CC(C)=CCC/C(C)=C/CC/C(C)=C/CO[P@@](=O)(O)OP(=O)(O)O
Put plainly: purified protein. The settings on record: Mg2+ active site.

B1: 5-epi-aristolochene synthase (TEAS) (Nicotiana tabacum) (protein)
chain: MASAAVANYEEEIVRPVADFSPSLWGDQFLSFSIKNQVAEKYAKEIEALKEQTRNMLLATGMKLADTLNLIDTIERLGISYHFEKEIDDILDQIYNQNSNCNDLCTSALQFRLLRQHGFNISPEIFSKFQDENGKFKESLASDVLGLLNLYEASHVRTHADDILEDALAFSTIHLESAAPHLKSPLREQVTHALEQCLHKGVPRVETRFFISSIYDKEQSKNNVLLRFAKLDFNLLQMLHKQELAQVSRWWKDLDFVTTLPYARDRVVECYFWALGVYFEPQYSQARVMLVKTISMISIVDDTFDAYGTVKELEAYTDAIQRWDINEIDRLPDYMKISYKAILDLYKDYEKELSSAGRSHIVCHAIERMKEVVRNYNVESTWFIEGYTPPVSEYLSNALATTTYYYLATTSYLGMKSATEQDFEWLSKNPKILEASVIICRVIDDTATYEVEKSRGQIATGIECCMRDYGISTKEAMAKFQNMAETAWKDINEGLLRPTPVSTEFLTPILNLARIVEVTYIHNLDGYTHPEKVLKPHIINLLVDSIKI
On to B1, for which the Km is 4.47 µM.
